Where two headings read alike, the source gives them in different places.

The target of series [1] is T1, LUXMYB (UniProt Q9SNB4 139-200).
T1 sequence: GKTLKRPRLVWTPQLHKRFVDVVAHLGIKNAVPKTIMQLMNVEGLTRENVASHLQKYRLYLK
Briefly: crystal structure.

In another series the target is T2, LUXMYB R146A (UniProt Q9SNB4 139-200, R146A).
T2 sequence: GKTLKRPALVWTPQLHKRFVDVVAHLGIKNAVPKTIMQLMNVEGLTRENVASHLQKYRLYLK
Briefly: EMSA. On the technique in general: In EMSA bound probe runs differently from free probe, usually more slowly.

Another series deals with T3, LUXFL (UniProt Q9SNB4 1-323).
T3 sequence: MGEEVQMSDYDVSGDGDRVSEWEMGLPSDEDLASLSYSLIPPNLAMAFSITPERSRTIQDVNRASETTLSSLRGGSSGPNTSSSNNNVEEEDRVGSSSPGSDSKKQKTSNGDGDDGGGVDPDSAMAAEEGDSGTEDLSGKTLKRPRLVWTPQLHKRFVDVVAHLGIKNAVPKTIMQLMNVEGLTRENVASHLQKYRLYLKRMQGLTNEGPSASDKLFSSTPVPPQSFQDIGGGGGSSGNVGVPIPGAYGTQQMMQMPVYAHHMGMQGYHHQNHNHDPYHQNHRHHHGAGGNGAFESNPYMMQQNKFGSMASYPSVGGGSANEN
Briefly: EMSA.

Series [2] addresses T1, LUXMYB. Briefly: EMSA.
Series [3] has as its target T1, LUXMYB. Briefly: crystal structure. The source holds these as a separate data set.
The target of another series is T4, LUXFL R146A (UniProt Q9SNB4 1-323, R146A).
T4 sequence: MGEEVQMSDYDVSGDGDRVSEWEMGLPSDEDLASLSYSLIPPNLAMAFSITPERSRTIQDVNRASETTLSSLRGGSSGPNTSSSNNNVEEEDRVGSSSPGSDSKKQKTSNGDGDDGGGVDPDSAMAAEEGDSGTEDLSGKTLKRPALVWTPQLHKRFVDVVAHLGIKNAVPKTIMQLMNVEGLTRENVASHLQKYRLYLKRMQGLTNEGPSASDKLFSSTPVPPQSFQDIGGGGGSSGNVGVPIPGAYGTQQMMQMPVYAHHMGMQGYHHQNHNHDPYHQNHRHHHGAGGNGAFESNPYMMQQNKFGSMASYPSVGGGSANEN
Briefly: EMSA.

For the next series, the target named is T5, ELF4 (UniProt O04211 1-111).
T5 sequence: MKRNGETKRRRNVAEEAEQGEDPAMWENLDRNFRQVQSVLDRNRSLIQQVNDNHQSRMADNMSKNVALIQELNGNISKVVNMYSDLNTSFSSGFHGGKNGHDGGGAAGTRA
Briefly: EMSA.

Another series has as its target T6, LUXFL;ELF3;ELF4 (Arabidopsis thaliana?;Arabidopsis …, UniProt Q9SNB4;O82804;O04211 1-323;1-695;1-111, ||).
T6 sequence 1: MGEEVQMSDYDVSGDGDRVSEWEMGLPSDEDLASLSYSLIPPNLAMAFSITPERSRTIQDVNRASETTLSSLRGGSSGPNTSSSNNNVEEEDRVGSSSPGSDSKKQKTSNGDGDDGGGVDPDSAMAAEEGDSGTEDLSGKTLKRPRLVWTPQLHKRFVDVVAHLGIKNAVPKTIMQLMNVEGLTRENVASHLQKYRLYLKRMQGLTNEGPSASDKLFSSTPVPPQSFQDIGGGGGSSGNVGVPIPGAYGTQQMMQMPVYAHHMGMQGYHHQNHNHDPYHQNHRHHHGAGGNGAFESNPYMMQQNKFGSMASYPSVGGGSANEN
T6 sequence 2: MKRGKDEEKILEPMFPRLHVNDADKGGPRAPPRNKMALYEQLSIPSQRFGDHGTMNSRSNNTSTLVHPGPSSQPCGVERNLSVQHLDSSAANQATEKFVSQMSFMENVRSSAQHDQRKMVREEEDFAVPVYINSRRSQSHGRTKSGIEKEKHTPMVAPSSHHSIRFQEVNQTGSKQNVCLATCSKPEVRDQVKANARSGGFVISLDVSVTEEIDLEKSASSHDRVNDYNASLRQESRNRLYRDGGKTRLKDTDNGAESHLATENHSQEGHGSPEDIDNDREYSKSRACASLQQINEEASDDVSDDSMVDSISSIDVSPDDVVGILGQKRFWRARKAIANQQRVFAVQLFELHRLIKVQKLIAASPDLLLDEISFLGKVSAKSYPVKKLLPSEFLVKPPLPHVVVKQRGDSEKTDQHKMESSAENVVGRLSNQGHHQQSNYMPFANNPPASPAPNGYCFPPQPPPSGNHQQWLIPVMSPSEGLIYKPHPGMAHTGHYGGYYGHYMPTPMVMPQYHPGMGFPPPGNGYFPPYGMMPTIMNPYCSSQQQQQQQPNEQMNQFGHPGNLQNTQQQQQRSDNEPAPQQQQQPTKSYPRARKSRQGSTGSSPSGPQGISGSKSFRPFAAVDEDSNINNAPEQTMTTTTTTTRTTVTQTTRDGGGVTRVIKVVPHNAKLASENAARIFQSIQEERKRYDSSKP
T6 sequence 3: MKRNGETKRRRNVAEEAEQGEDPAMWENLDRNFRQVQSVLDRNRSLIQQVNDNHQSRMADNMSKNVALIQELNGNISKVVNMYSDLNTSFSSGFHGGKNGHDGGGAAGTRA
Briefly: EMSA.

Another series concerns the target T7, ELF3 (UniProt O82804 1-695).
T7 sequence: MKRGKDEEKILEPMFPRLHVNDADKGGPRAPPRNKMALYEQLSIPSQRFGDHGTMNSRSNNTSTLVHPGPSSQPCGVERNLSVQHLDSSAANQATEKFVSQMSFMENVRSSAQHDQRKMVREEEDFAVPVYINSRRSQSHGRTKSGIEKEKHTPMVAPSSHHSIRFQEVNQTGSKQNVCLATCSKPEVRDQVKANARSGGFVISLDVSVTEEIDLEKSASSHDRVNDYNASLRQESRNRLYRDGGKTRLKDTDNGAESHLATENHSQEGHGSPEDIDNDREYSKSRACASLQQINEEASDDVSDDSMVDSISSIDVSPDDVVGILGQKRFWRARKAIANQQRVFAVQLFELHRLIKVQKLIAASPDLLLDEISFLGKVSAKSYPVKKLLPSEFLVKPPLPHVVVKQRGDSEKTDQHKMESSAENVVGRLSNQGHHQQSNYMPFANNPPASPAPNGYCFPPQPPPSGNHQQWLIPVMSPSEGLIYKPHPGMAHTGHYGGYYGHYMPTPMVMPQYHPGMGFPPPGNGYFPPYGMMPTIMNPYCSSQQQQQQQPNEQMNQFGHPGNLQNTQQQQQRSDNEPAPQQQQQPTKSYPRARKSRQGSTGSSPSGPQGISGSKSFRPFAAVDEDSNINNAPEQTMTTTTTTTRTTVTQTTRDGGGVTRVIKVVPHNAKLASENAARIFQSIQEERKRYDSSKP
Briefly: EMSA.

In series [4] the target is T8, EARLY FLOWERING 3, full-length (Arabidopsis, UniProt O82804 1-695).
T8 sequence: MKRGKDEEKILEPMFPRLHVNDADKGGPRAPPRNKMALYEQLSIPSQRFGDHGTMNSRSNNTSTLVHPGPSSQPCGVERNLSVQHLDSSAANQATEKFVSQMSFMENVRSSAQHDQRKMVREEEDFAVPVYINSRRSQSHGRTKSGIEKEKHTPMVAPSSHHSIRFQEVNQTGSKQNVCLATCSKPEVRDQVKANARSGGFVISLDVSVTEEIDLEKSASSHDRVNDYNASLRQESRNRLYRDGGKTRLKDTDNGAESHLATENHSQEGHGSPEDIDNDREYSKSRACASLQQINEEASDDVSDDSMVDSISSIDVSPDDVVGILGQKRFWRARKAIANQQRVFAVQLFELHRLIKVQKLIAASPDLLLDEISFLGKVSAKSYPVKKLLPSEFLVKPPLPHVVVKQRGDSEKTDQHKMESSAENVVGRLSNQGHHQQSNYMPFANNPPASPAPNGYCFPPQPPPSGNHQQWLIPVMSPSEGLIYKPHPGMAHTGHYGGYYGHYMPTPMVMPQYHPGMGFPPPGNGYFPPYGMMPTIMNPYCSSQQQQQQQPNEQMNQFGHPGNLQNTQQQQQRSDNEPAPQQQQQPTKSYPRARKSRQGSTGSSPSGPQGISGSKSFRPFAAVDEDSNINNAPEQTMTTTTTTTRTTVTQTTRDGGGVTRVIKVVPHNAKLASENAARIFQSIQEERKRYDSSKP
Briefly: native gel or EMSA.

B1: crystal 10-mer AGATACGC (dsDNA)
DNA 1: TAGATACGCA
DNA 2: ATGCGTATCT
For the molecule B1, in the series with LUXMYB [1], the binding result is recorded as “binds”.

B2: Oligo 5 (ATATTCGA) (dsDNA)
DNA 1: ATGATGTCTTCTCGAATATTCGATAAAAATGGTGTTG
DNA 2: CAACACCATTTTTATCGAATATTCGAGAAGACATCAT
B2: the values for the dissociation constant Kd in the series with LUXMYB R146A, with LUXFL and with LUXMYB [2] were 137 ± 13 nM, 178 ± 3.5 nM and 43 ± 4.2 nM, respectively.

B3: crystal 10-mer ATATTCGA (dsDNA)
DNA 1: TATATTCGAA
DNA 2: ATTCGAATAT
For the molecule B3, in the series with LUXMYB [3], the binding result is “binds”.

B4: Oligo 4 (GGATCCGA) (dsDNA)
DNA 1: ATGATGTCTTCTCGGATCCGATAAAAATGGTGTTG
DNA 2: CAACACCATTTTTATCGGATCCGAGAAGACATCAT
Turning to B4, the Kd in the series with LUXMYB R146A worked out at 120 ± 1 nM; with LUXFL it was 118 ± 10.6 nM; with LUXFL R146A it was 164 ± 4.2 nM; in the series with LUXMYB [2] it was 17 ± 2.1 nM.

B5: Oligo 1 (PRR9 36 bp) (dsDNA)
DNA 1: ATGATGTCTTCTCAAGATTCGATAAAAATGGTGTTG
DNA 2: CAACACCATTTTTATCGAATCTTGAGAAGACATCAT
B5: the binding result with ELF4 is recorded as “no binding”; in the series with LUXFL;ELF3;ELF4, “binds”; in the series with ELF3 it was “no binding”. For the same molecule, the Kd with LUXMYB R146A was found to be 50 ± 2.4 nM; with LUXFL, 93 ± 5.8 nM; with LUXFL R146A, 105 ± 11.8 nM; with LUXMYB [2] it was 37 ± 2.9 nM.

B6: Oligo 2 (AGATACGC) (dsDNA)
DNA 1: ATGATGTCTTCTCAAGATACGCTAAAAATGGTGTTG
DNA 2: CAACACCATTTTTAGCGTATCTTGAGAAGACATCAT
B6: the dissociation constant Kd in the series with LUXMYB R146A stood at 50 ± 1.8 nM; with LUXFL it was 98 ± 2.9 nM; with LUXFL R146A, 336 ± 4.8 nM; with LUXMYB [2] it was 6.5 ± 1.4 nM.

B7: Oligo 3 (AAGATCTT) (dsDNA)
DNA 1: ATGATGTCTTCTCAAGATCTTATAAAAATGGTGTTG
DNA 2: CAACACCATTTTTATAAGATCTTGAGAAGACATCAT
For the molecule B7, the Kd with LUXMYB R146A was found to be 63 ± 3.1 nM; with LUXFL, 93 ± 3.5 nM; with LUXFL R146A, 204 ± 6.7 nM; with LUXMYB [2], 14 ± 1.8 nM.

B8: EARLY FLOWERING 4 (natural protein)
chain: MKRNGETKRRRNVAEEAEQGEDPAMWENLDRNFRQVQSVLDRNRSLIQQVNDNHQSRMADNMSKNVALIQELNGNISKVVNMYSDLNTSFSSGFHGGKNGHDGGGAAGTRA
Regarding B8, the binding result in series [4] is on record as “binds”.

Usually Kd stands for the constant that tells how readily two partners part at equilibrium. Read a high Kd as weaker binding.

(Values after paper PMC7104408 (Proceedings of the National Academy of Sciences of the …, 2019).)
